Assay: soluble on expression in E. coli; label from the status in PepcDB or PDB records

Question: Which “soluble on expression in E. coli” value does the source give for “MFSPDTNSEFYDDFYTKYNTNMAPTTSTFNAQPRLSLDSGLGLTNDSFYSTDLNETHLMDISAGNASTSFQSQPPPQLESSPPTKWARIRTPPNRKKKISHEGPNQEALPPGFNLFSPPSRKKIKTAFSSPPPKSMKTPDSLRKSIRISSPSPFKVTFSKTPLKLSNNENVTGIHIGRSGTYYNKQVTGSASKRCLLPSKPDGFTFLGSPGNSDVLDFPLQTTFEGFGDLDTPAKINAALEVNNDDSMDYYQYAGMIETSSSLATYTNSTGPLVENHARNLKSVPISRTASRNLMKISRKSVEEPVPEPQAVHVEPVIEKPTKISAKKEKEQKKSAAKEAALKEAKEKEMRIWKLAPFETPKKEVPLYSGRWLVISTGRTLAQQELFSDAKSFFKANPPPAPRAPQAPELASGPRRIPTIQRVTLFKHRYRSPRD” here?
Answer: The value was “not soluble”.

Question: With “RTGFSVGAGVEYNFSRHWAIQSGLMITSKGATAEYEGYSPLSSSTDPISYKAKISPIYLDIPILAAFKIDISNHVKFAINIGPYLSVGMGGKYELTNTGGHKNESHNPFKSYSSTAEMKDKDALLKRFDIGVQGGIGFEIWKHYLINASFQHGFMDPIKGGTLYAGDTEKHYPIGGILTVGYRF” as the sequence, how does the “soluble on expression in E. coli” value read?
Answer: Its value is “not soluble”.

Question: For “MSILHTVNKSPFERNSLESCLKFATEGASVLLFEDGIYAALAGTRVESQVTEALGKLKLYVLGPDLKARGFSDERVIPGISVVDYAGFVDLTTECDTVQAWL”, which “soluble on expression in E. coli” value is on record?
Answer: The value was “soluble”.

Question: For “RPDKVKLALDKTSYRAGDTLKVTITPPHPGKGLLLVESDKPLYVQAIDANPSTTLEIPVTADWERHDVYVTALVFRGGSASNNTTPARAVGEAYVPMQRKERRVAVGLVVPKQVRPAQSLPVTVSVPELAGKQAHVTISAVDAGILNITGF”, which “soluble on expression in E. coli” value is on record?
Answer: Its value is “not soluble”.

Question: Which “soluble on expression in E. coli” value does the source give for “MGSDKIHHHHHHMSNPLLKQICELDVFTLLVFKTIFDTGHANSAAKALDVSAPKISRCLNALRLTFNDELFYRRQQGLKPTPLAESLYAAICQFTNSVYNLEQSALQIQNTHNTTDLPLHIAVSNELLSFLAPQLSSPDVITQLGKIRLHKWQENSAELIHAGELDFGITLENADNKELSYTRLGCISGIYVVASKHHPIWQTELSITLEHICRHPFLCLDLKGFNSKVDPLEFFCQRQGILLPSIDRVIDREEWYAHLLTIQSVAFCSSIDMHTVKHMPGLKLVPLSLTELHRLHDSMLPPQYYLVEKPRARRRYSQTQCDIVVSPLITTLIPTL” here?
Answer: The value was “not soluble”.

Question: With “MGSDKIHHHHHHVVKHPAWSRFGAEVRRLRVQSGYSQAQLARAIPLSQSMLSGIELGRKGAKRDHAEALDRVLNTGGRLVRLWDSLNSIPAHPSWFQNVLALERKAVEIREYQMVVLPGLLQTEDYARSLIRPAQPWANAEKVDELVHARMSRREILTAPDRPLCWFVVDQVVIDRVTGSPTVMKEQLTYLLNLIEDHTIRFQVFPQEIPLHPGLTGPIRIMSFDDRPTMAYVEHTLGGLLTDQQQEVRYCSAIFSALQSEALSSHASADYIRRRKDQL” as the sequence, how does the “soluble on expression in E. coli” value read?
Answer: Its value is “not soluble”.

Question: Which “soluble on expression in E. coli” value does the source give for “MGSDKIHHHHHHMDIKVITRHAPSNYGSLLQSIATITTLERLGHKCEIIDYIRDDEHGLSAVKTNLNNKQRWSGNSLKKLAYIVLRYPEEKKAELNFREMRRKYLKLTQLCRTHDDLKRLDADIFMTGSDQVWGPTLNGHYDEAYFLSFVKDKRKIAYAASLGRTDFTAKILSEYKKLLSSYSGIAVRENTAVGLLRQMDIECAGQVLDPTLLLTGDEWSRMIKKDMGGKYVLVYQLHNNPALSKYAVRFAEHVGLPLYRVSPTFHQIRRGGKFIYLPDLPDFLSYIKNSTYFITDSFHGTAFALNFNRQFIEILPNNKTGNRNQSILQLTRLQDRIVTDYADCSISERMIDYERVNDILRKERIRSLGILKQLLRQ” here?
Answer: Its value is “not soluble”.

Question: Which “soluble on expression in E. coli” value does the source give for “MLLENGWIVGVKQVLSPHFDLRPEGEMPSLLVIHSISLPPSEFGGPYIDQLFTGTLNADEHPYFASIVHLRVSAHCLIRRDGEIIQYVPFDKRAWHAGVSVFAGRERCNDFSIGIELEGTDVLPFTPVQYQRLTEISAVLFAHYPITVERVAGHSEIAPGRKTDPGLAFDWFFYQQNLAKLLV” here?
Answer: The value was “not soluble”.

Question: With “MSRRGGAPSRPPRPPIRYVATAPKPSRVVTRSRPEGVRWLRADGTPNWSQRVRRLPGDAKELASRPAVSVHKSAPILSAAEKIASHRVRGLVVIKGSGDAVLEGILLATDLVNYLGGGDYFQIVENRHRDSIYSALRKEVVATIMNRHPIAVSVSDDLDTILRIMVGEGIGFLPVLYDDGTLHGVITERNILGRIADIP” as the sequence, how does the “soluble on expression in E. coli” value read?
Answer: The value was “not soluble”.

Question: Which “soluble on expression in E. coli” value does the source give for “MITVSIAGGSQPEILQLVKKALKEAEQPLQFIVFDTNENLDTENLWKYVHCSDEAAVAQEAVSLVATGQAQILLKGIIQTHTLLKEMLKSEHQLKNKPILSHVAMVELPAGKTFLLTDCAMNIAPTQATLIEIVENAKEVAQKLGLHHPKIALLSAAENFNPKMPSSVLAKEVTAHFNDQQEATVFGPLSLDLATSEEAVAHKRYSGPIMGDADILVVPTIDVGNCLYKSLTLFGHAKVGGTIVGTKVPVVLTSRSDSTESKFHSLRFAMRQVHHHHHH” here?
Answer: Its value is “soluble”.

Question: Which “soluble on expression in E. coli” value does the source give for “MGSSHHHHHHSSGLVPRGSHMASGLVPRGSHMASMPEASFFTDMLQSITDHGRQLLFSGSRNTQAAAKADLETLCEMLLSSRGEASGMALAAEILDRWGALDSEGAQKFFHMLQQKFGPDTARLDQAIEDYRTDKSSTAVIALHQAAEPRRQELLRRLNHAPNGTATLVRMRQQLLASKDRSEAYHALDADFTHLFGSWFNRGFLTLRPIDWTTPAYILEKIIQYEAVHEIAGWEELRRRLAPADRRCFAFFHPRLADEPLVFVEVALTRSVPKAIADVLDEGREQINADEATTAVFYSISNCQDGLRGISFGNFLIKQVVEDLRKDLPGLKNFVTLSPVPGFARWLAKMRTATGDRSLSEAALKTLSLLDDPNWPGSESSAADVERVLLPLAARYFLTERTPEGRPVDPVARFHLGNGARLERVNFLGDRSPKALQQAHGLMVNYLYKLDDIVANHEALAQRGEVIASPAVKSLLNQNDEGRRSGNGQQGSRAFAQLMNSTLGGGRK” here?
Answer: The value was “soluble”.

Question: Which “soluble on expression in E. coli” value does the source give for “MNGDDTFARRPTVGAQIPEKIQKAFDDIAKYFSKEEWEKMKVSEKIVYVYMKRKYEAMTKLGFKAILPSFMRNKRVTDFQGNDFDNDPNRGNQVQRPQMTFGRLQGIFPKIMPKKPAEEGNVSKEVPEASGPQNDGKQLCPPGKPTTSEKINMISGVLQRYCRFGSRPLQ” here?
Answer: Its value is “soluble”.

Question: With “MGSDKIHHHHHHMFIENYCPISADRISFTRQQGSDFAKQVADDFNPLHNIDAKRFCVPGDLLFSIIIAKSGLHKNMTFDFSGMVSDDVHLTFPQEIDESFDIKDDKDKTCLSVHVSGDKTHESVLINALTKAYVDFSGHTFPDILVKLMADNSVMINPARPMVMYQSMSIDLHTLTAETVTLKLAKTSLSIEGKRGDAWLEFDLLSNDKVIGHGKKHMLLSGLRTYEQETIDAMVNQYRDSKKNYQA” as the sequence, how does the “soluble on expression in E. coli” value read?
Answer: The value was “not soluble”.

Question: For “MAISLRQLEIFEKVAQCEHVTQASTQLFLTQSAVSMAIAELERVAGAPLFERRGKRLLLNDRGRKILPEAEEVVRRTRAIEQFLEDSAGEPRGVLNVGASTTIGNYILPELIAEFSGNYPDAKVLLTIGNAHQIEHALEKGELDLGLIEGIPHSGVLDSTPWKKDELVVVVGKGHPWACDGAASVEMLGNAPWIMRETGSGTREVFEGAMAGKGISFSISLELGHTEAIKKAIEAGLGVGCLSRIAVNRELEHGWLVEIACPLDLKRTLSLQTRQSGYKTRLLCAFWSLLNRHKDI”, which “soluble on expression in E. coli” value is on record?
Answer: The value was “not soluble”.

Question: Which “soluble on expression in E. coli” value does the source give for “MSLSIRYIVKTDVSETFEIIKAGQVGSNIVFSEIRTFDFGELATLACEKFYFRSSNRAALFVNINNFHGETEVTIISTGSSNGFFTGIDWGAAFDYMHSVVADLKRVAIREVKMEKQEEGHHHHHH” here?
Answer: Its value is “soluble”.

Question: For “MSTESSHQVHTATVPVRWTDFDRFGHVTNSAYVDLAQEARTVWANDNFAVKGHQIPAVFVRHIEVDYLRPIMPSTSQVVVETEVVHIGNTSFTTRQHLKDGEGHVCATVIAVQVAVDMLTTRPRAIAAHELQVLTQFAASTQQESEQ”, which “soluble on expression in E. coli” value is on record?
Answer: Its value is “not soluble”.

Question: For “MQVLVRDNNVDQALRALKKKMQREGIFREMKMRGYYEKPSEKRAREKAEAVRRTRKLARKRAQREGLISNGRGSPLKLEHHHHHH”, which “soluble on expression in E. coli” value is on record?
Answer: The value was “not soluble”.

Question: With “MSLDFSIPEEYMMLKESMREFVKRELMPLEKTLLERELSLWTEPGHLIPDEDHKRLMQKTKELGFWGLEVDEEFGGQGLGMLAKTLVVEELSKSLVGFSNHGFTLPPDAPNLYYLHECCGPRQREKYFVPYCNGDVDSAMACTEPGAGSDVSGLKTKAVKKGDKWVINGTKSFISKCDYDNVFFIVIAVTDPSASTKDRFTAFLIDREHPGVRIGKEIPVIGPMPTWDLILEDVEVDDDAILGDVGKAFIPLQNRFGVRRIELASSCTGMAERLIQMMIDQANTRITFGQPLAERGTIQNWIADSTMELEQVRWLLYYAAWKSDQGHKDLRIEGASVKVAATEMLTRVADRAIQIHGGLGVSHELGIEYVARHVRLWRIVEGPSEVHRWLVARQLLKEGHHHHHH” as the sequence, how does the “soluble on expression in E. coli” value read?
Answer: Its value is “not soluble”.

Question: With “MATLLEQLSTMTVVVADTGDLDAIRKFTPRDATTNPSLILAAAQIPAYQSLIDEALHSSRQLLGNSAAVEEVVHEALDEICVIFGKEILKIVPGRVSTEVDARLSFNTEATIAKAHKLIGLYNDAGITNDRVLIKIASTWEGIKAAEVLEKDGIHCNLTLLFGFSQAVACAEAGVTLISPFVGRILDWYKASTGRDSYAGPEDPGVISVTKIFNYFKTYDYKTEIMGASFRNLDEIIELAGCDLLTISPKLLDQLGSTEAPLKRKLDAVNPVAAESQIHVDKESFESMMRADRMAFEKLDEGIRGFSKAIETLEAQLAHRLAVLEGGAAFCHVVQEIFMLNDLDGDGCITREEWLGSDAVFDALDHDHDGRLLQEDVRSGLGAALALTTA” as the sequence, how does the “soluble on expression in E. coli” value read?
Answer: The value was “not soluble”.

Question: Which “soluble on expression in E. coli” value does the source give for “ERVPEGSIRVAIASNNGEQLDGHFGSCLRFLVYQVSAKDASLVDIRSTLDVALAEDKNAWRVEQIQDCQVLYVVSIGGPAAAKVVRAGIHPLKKPKGCAAQEAIAELQTVMAGSPPPWLAKLVGVSAEERVRFSVSDDEDEAARA” here?
Answer: The value was “soluble”.

Question: For “MPTTQLHHHYVLCGWHVRSALTLPELPPWSATATPVDADVVIEEGEVPDRLDLHDPVESWLSVGRDGSVLLQVPQVVRIHVHAGRAMRVQRLNRHDESWRLFLLGSALGYLCLQRSLFPLHAACLRIGTQTVAFAGHSGAGKSTLAAALLKRGHGLLSDDLTVIRLDSAGAIMVLPAFPRLKLWRDTLESLQLPVTDAPPVRPGMEKFDLRPSAGFDAAPVRLDAVVVLGDASEPHLQRLSPQHALPLLHGYLARPQAAVRMGLHAATFAHAAAIARQVPVWRLRRPRRFDALDITVDLIEAHVGALEHHHHHH”, which “soluble on expression in E. coli” value is on record?
Answer: Its value is “not soluble”.

Question: Which “soluble on expression in E. coli” value does the source give for “MQNISTHKYMEKLDLTWSDDSIRFINTATPRARQTFFYVQEAGDFCTSSPYFTERENLNSFLIIYTLRGKGLLKYHGSQYSLHPGTTAYINCMEHHHYECLQKQNWEFLWLHFNGPSALGYYEEFMRSNFHILDSLDPFFMESTMRRILSITQRKDIHSEILSSCLIINILTRILIENDTENLSLGFMPTY” here?
Answer: Its value is “not soluble”.

Question: Which “soluble on expression in E. coli” value does the source give for “MAHHHHHHMLSLCKSLSSDAPTRTKTRVVLSMFNASHVDELLASTTRTLQRSQVLLDERRSVIQSQQGLPPMFCVASSSAASTSVGSSAAAPYASASSSFADTVRSLQSLSELRSYVEATAEMMKRVREEGMEPSPAMQQRRARGQDFALLQSMTRGLRGAMTAAWQMSETTAALWAFSTEACGGAEEAAAAEDAASAAAGSTLCAVPGARSGGTRSSGAQLTSTLIFSAFCVDLAIAAPRAASAVAAELESVFEPSSDNGRPSSLVSEWMRDGNVKLSALLRDVAALLPPPVKTRLVARLADVLFRPSPALPRSPKESSGHPLGCELLSGGQLLLPSLDYYLLEQYPSSLASRWFLQPLQATAEHLRADYYASADQFHVQCRWLLRLVLTLLYACQSAALPTSTASRPPLERRLRTAQRLYDAWLIPLEKTFGNGTARHGMSVSFNRALVQPHGHMVERLLFTSSPASGVSGVSKVVQQSREWSGILYSAQYRLLLILEKLAHSEVAQVNGTSSTSAKQRTYETMLRQNGGKVSVSLLQTLAEDKQLLLDETPSRSPDGHRLYKLHDGLLDDSGKAVFVYLDDGALFTKVGRARAFQRVKSVEDIFKPLQ” here?
Answer: Its value is “not soluble”.

Reference: the DeepSol protein solubility set
